Test results taken from paper PMC5423775, “Structure of a AAA+ unfoldase in the process of unfolding substrate” (eLife, 2017).

Experiments:
[1] = molecular target: ΔN-VAT (Thermoplasma acidophilum VAT with the regulatory N-terminal domain removed) (Thermoplasma acidophilum) (UniProt O05209); experiment: cryo-EM structure; purified ΔN-VAT at ~20 mg/mL, 50 mM HEPES pH 7.5, 100 mM NaCl, 5 mM ATPγS, 0.05% IGEPAL CA-630; six-fold symmetric stacked-ring class (~85% of particle images), C6 symmetry applied, 3.9 Å
ΔN-VAT = molecular target: T1, ΔN-VAT (Thermoplasma acidophilum, UniProt O05209); experiment: cryo-EM structure, […] Å; type: binding; details: 5 mM ATPγS, 50 mM HEPES pH 7.5, 100 mM NaCl; all twelve NBD1 and NBD2 nucleotide sites; six-fold symmetric stacked-ring state
T1 construct: N-terminal regulatory domain removed (Methods: 181 residues deleted; b5 says first 182), NBD1 + NBD2; N-terminal His6 tag with TEV site, pProEx vector; homohexamer
T1 sequence (O05209 182-745, stated change not applied): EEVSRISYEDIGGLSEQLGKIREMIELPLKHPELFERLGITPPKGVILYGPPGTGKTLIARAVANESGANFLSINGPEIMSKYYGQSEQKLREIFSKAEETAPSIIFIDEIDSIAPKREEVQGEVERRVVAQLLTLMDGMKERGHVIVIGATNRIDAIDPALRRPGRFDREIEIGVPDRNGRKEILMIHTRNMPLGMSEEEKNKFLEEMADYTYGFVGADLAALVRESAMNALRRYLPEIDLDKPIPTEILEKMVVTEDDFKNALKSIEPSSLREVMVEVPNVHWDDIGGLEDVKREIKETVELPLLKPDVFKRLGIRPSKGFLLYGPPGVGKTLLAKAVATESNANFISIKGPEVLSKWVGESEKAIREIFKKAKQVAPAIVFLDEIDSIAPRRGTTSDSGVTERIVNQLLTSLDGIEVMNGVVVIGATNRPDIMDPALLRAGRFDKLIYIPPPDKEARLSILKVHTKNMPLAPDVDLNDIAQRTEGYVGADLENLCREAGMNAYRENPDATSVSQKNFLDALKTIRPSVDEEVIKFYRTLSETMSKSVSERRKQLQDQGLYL

Row | Compound | stoichiometry N [1] | cryo-EM structure, 3.9 Å (ΔN-VAT)
1 | ΔN-VAT (Thermoplasma acidophilum VAT with the regulatory N-terminal domain removed) (from UniProt O05209 182-745) (enzyme) | 6 | –
2 | Nc1ncnc2c1ncn2[C@@H]1O[C@H](COP(=O)(O)OP(=O)(O)OP(O)(O)=S)[C@@H](O)[C@H]1O [ATPγS] | – | Density corresponding to ATPγS is visible in all twelve catalytic sites.
